Test [1] addresses T1, rat nerve growth factor (beta-NGF) (rat, UniProt P25427 122-241). The experiment in a line: purified scFv, inhibition of rat NGF binding to TrkA fusion protein.
Test [2] has as its target T2, human nerve growth factor (beta-NGF) (human, UniProt P01138 122-241). The experiment in a line: purified scFv, inhibition of human NGF binding to TrkA fusion protein.
Test [3] deals with mouse nerve growth factor (mouse, UniProt P01139 122-241). The test can be described thus: cell-based or functional assay.
Chain of mouse nerve growth factor (P01139 122-241): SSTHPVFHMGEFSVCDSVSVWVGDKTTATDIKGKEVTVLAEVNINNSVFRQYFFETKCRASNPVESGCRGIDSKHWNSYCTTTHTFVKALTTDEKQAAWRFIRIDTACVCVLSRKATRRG
Test [4] addresses T2, human nerve growth factor (beta-NGF). The experiment in a line: cell-based or functional assay.
The target in test [5] is T1, rat nerve growth factor (beta-NGF). The experiment in a line: cell-based or functional assay.

For orientation: IC50 means the concentration that gives 50% inhibition. High values mean a need for much substance, low ones inhibition by little substance.

T2 sequence (P01138 122-241): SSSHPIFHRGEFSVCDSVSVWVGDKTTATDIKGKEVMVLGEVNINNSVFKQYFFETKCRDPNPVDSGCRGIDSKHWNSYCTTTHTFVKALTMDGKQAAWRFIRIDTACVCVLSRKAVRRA
T1 sequence (P25427 122-241): as the sequence (P01139 122-241) above, with A40G, R50K, S61P, E94D, T117A counted along it

B1: 1021E5 scFv (scFv, part only; not given: Linker and tags, V domains shown, not shown: another chain or arm of the molecule; small tags and cut ends)
VH: EVQLVQSGAEVKKPGSSVKVSCKASGGTFSTYGISWVRQAPGQGLEWIGGIIPIFDTGNSAQSFQGRVTITADESTSTAYMEVSSLRSDDTAVYYCASSSRIYDYAGGDHYYYDMDVWGQGTMVTVSS
VL: QAVLTQPSSVSTPPGQKVTISCSGSSSNIGNNYVSWYQQLPGTAPKLLIYDNNKRPSGIPDRFSGSKSGTSATLGITGLQTGDEADYYCGTWDSSLSAWVFGGGTKLTVL
As to B1, the IC50 in test [1] was 269 nM; in test [2], 94 nM.

B2: 1150F1 human IgG4 (antibody, V domains shown)
VH: EVQLVQSGAEVKKPGSSVKVSCKASGGTFSTYGISWVRQAPGQGLEWIGGIIPIFDTGNSAQSFQDRVTITADESTSTAYMEVGSLRSDDTAVYYCASSSRIYDLNPSLTAYYDMDVWGHGTMVTVSS
VL: QAVLTQPSSVSTPPGQKVTISCSGSSSNIGNNYVSWYQQLPGTAPKLLIYDNNKRPSGIPDRFSGSKSGTSATLGITGLQTGDEADYYCGTWDSSLSAWVFGGGTKLTVL
Consider B2, for which the “IC50, FLIPR calcium mobilisation” value in test [3] amounted to 0.19 nM; in test [4], 0.32 nM; in test [5], 0.15 nM. Further, in test [4], the “IC50, PC12 cell survival” value came out at 0.47 nM.

B3: 1132H9 scFv (scFv, V domains shown)
VH: EVQLVQSGAEVKKPGSSVKVSCKASGGTFSTYGISWVRQAPGQGLEWIGGIIPIFDTGNSAQSFQGRVTITADESTSTAYMEVSSLRSDDTAVYYCASSSRIYDLNPSLTAYYDMDVWGQGTMVTVSS
VL: QAVLTQPSSVSTPPGQKVTISCSGSSSDIGNNYVSWYQQLPGTAPKLLIYDNNKRPTGIPDRFSGSKSGTSATLGITGLQTGDEADYYCGTWDSSLSAWVFGGGTKLTVL
notes: also called LOT1132H09
On to B3, for which the IC50 was determined as 0.68 nM in test [1] and 0.54 nM in test [2].

B4: 1133C11 scFv (scFv, V domains shown)
VH: EVQLVQSGAEVKKPGSSVKVSCKASGGTFSTYGISWVRQAPGQGLEWIGGIIPIFDTGNSAQSFQGRVTITADESTSTAYMEVSSLRSDDTAVYYCASSSRIYDLNPSLTAYYDMDVWGQGTMVTVSS
VL: QAVLTQPSSVSTPPGQKVTISCSGSSSNIGNNYVSWYQQLPGTAPKLLIYDNNKRPSGIPDRFSGSKSGTSATLGITGLQTGDEADYYCGTWDSSLSAWVFGGGTKLTVL
notes: also called LOT1133C11
As for B4, the figures for the IC50 in test [1] and in test [2] were 1.24 nM and 1.93 nM, respectively.

B5: 1134D9 scFv (scFv, V domains shown)
VH: EVQLVQSGAEVKKPGSSVKVSCKASGGTFSTYGISWVRQAPGQGLEWIGGIIPIFDTGNSAQSFQGRVAITADESTSTAYMEVSSLRSDDTAVYYCASSSRIYDLNPSLTAYYDMDVWGQGTMVTVSS
VL: QAVLTQPSSVSTPPGQKVTISCSGSSSNIGNNYVSWYQQLPGTAPKLLIYDNNKRPSGIPDRFSGSKSGTSATLGITGLQTGDEADYYCGTWDSGLSAWVFGGGTKLTVL
notes: also called LOT1134D09
In the case of B5, the values for the IC50 in test [1] and in test [2] were 0.2 nM and 0.14 nM, respectively.

B6: 1146D7 scFv (scFv, V domains shown)
VH: EVQLVQSGAEVKKPGSSVKVSCKASGGTFSTYGISWVRQAPGQGLEWIGGIIPIFDTGNSAQSFQGRVTITADESTSTAYMEVSSLRSDDTAVYYCASSSRIYDLNPSLTAYYDMDVWGQGTMVTVSS
VL: QAVLTQPSSVSTPPGQEVTISCSGSSTNIGNNYVSWYQQLPGTAPKLLIYDNNKRPSGIPDRFSGSKSGTSATLGITGLQTGDEADYYCGTWDSSLSAWVFGGGTKLTVL
notes: also called LOT1146D07
Turning to B6, the IC50 in test [1] was determined as 0.02 nM; in test [2], 0.23 nM.

B7: 1218H5 scFv (scFv, V domains shown)
VH: EVQLVQSGAVVKKPGSSVKVSCKASGGTFSTYGISWVRQAPGQGLEWIGGIIPIFDTGSSAQSFQGRVTITADESTSTAYMEVSSLRSDDTAVYYCASSSRIYDLNPSLTAYYDMDVWGQGTMVTVSS
VL: QAVLTQPSSVSTPPGQKVTISCSGSSSNTGNNYVSWYQQLSGTAPKLLIYDNNKRPSGIPDRFSGSKSGTSATLGITGLQTGDEADYYCGTWDSSLSAWVFGGGTKLTVL
notes: also called LOT1218H05
With B7, the IC50 was 0.03 nM in test [1] and less than 0.01 nM in test [2].

B8: 1131H2 scFv (scFv, V domains shown)
VH: EVQLVQSGAEVKKPGSTVKVSCKASGGTFSTYGISWVRQAPGQGLEWIGGIIPIFDTGNSAQSFQGRVTITADESTSTAYMEVSSLRSDDTAVYYCASSSRIYDLNPSLTAYYDMDVWGQGTMVTVSS
VL: QAVLTQPSSVSTPPGQKVTISCSGTSSNIGNNYVSWYQQLPGTAPKLLIYDNNKRPSGIPDRFSGSKSGTSATLGITGLQTGDEADYYCGTWDSSLSAWVFGGGTKLTVL
notes: also called LOT1131H02
Consider B8, for which the IC50 in test [1] was 0.09 nM; in test [2] it was less than 0.01 nM.

B9: 1160E3 scFv (scFv, V domains shown)
VH: EVQLVQSGAEVKKPGSSAKVSCKASGGTFSTYGISWVRQAPGQGLEWIGGIIPIFDTGNSAQSFQGRVTITADESTSTAYMEVSSLRSDDTAVYYCASSSRIYDLNPSLTAYYDMDVWGQGTMVTVSS
VL: QAVLTQPSSVSTPPGQKVTISCSGSNSNIGNNYVSWYQQLPGTAPKLLIYDNNKRPSGIPDRFSGSKSGTSATLGITGLQTGDEADYYCGTWDSSLSAWVFGGGTKLTVL
notes: also called LOT1160E03
Take B9: the concentration for half-maximal inhibition (IC50) was found to be 0.22 nM in test [1] and 0.14 nM in test [2].

B10: 1147D2 scFv (scFv, V domains shown)
VH: EVQLVQSGAEVKKPGSSVRISCKASGGTFSTYGVSWVRQAPGQGLEWIGGIIPIFDTGNSAQSFQGRVTITADESTSTAYMEVSSLRSDDTAVYYCASSSRIYDLNPSLTAYYDMDVWGQGTMVTVSS
VL: QAVLTQPSSVSTPPGQKVTISCSGSSSNIGNNYVSWYQQLPGTAPKLLIYDNNKRPSGVPDRFSGSKSGTSATLGITGLQTGDEADYYCGTWDSSLSAWVFGGGTKLTVL
notes: also called LOT1147D02
B10: the figures for the IC50 in test [1] and in test [2] were 0.1 nM and less than 0.01 nM, respectively.

B11: 1150F1 scFv (scFv, V domains shown)
VH: EVQLVQSGAEVKKPGSSVKVSCKASGGTFSTYGISWVRQAPGQGLEWIGGIIPIFDTGNSAQSFQDRVTITADESTSTAYMEVGSLRSDDTAVYYCASSSRIYDLNPSLTAYYDMDVWGHGTMVTVSS
VL: QAVLTQPSSVSTPPGQKVTISCSGSSSNIGNNYVSWYQQLPGTAPKLLIYDNNKRPSGIPDRFSGSKSGTSATLGITGLQTGDEADYYCGTWDSSLSAWVFGGGTKLTVL
notes: also called LOT1150F01
Turning to B11, the IC50 in test [1] came to 0.16 nM; in test [2], 0.2 nM.

B12: 1165D4 scFv (scFv, V domains shown)
VH: EVQLVQSGAEVKKPGSSVKVSCKASGGTFSTYGISWVRQAPGQGLEWIGGIIPIFDTGNSAQSFQGRVTITADESTSTAYMEVSSLRSDDTAVYYCASSSRIYDLNPSLTAYYDMDVWGQGTMVTVSS
VL: QAVLTQPSSVSTPPGQKVTISCSGSSSNIENNYVSWYQQLPGTAPKLLIYDNNKRPSGIPDRFSGSKSGTSATLGITGLQTGDEADYYCGTWDSSLSAWVFGGGTKLTVL
notes: also called LOT1165D04
Regarding B12, the IC50 in test [1] was 0.29 nM; in test [2], 0.11 nM.

B13: 1147G9 scFv (scFv, V domains shown)
VH: EVQLVQSGAEVKKPGSSVKVSCKASGGTFSAYGISWVRQAPGQGLEWIGGIIPIFNTGNSAQSFQGRVTITADESTSTAYMEVSSLRSDDTAVYYCASSSRIYDLNPSLTAYYDMDVWGQGTMVTVSS
VL: QAVLTQPSSVSTPPGQKVTVSCSGSSSNIGNNYVSWYQQLPGTAPKLLIYDNNKRPSGIPDRFSGSKSGTSATLGITGLQTGDEADYYCGTWDSSLSAWVFGGGTKLTVL
notes: also called LOT1147G09
With B13, the values for the IC50 in test [1] and in test [2] were 0.01 nM and 0.25 nM, respectively.

The record behind these values is patent US20080107658A1 (AstraZeneca / MedImmune, published 2008).
